Values of other authors as cited in PMC7878404.

Target: Bex1 50-75 (UniProt Q9R224)
Sequence of UniProt Q9R224 (Q9R224 50-75): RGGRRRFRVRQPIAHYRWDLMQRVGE

Kd: 150 µM
Substance: OMP (from UniProt P08523)
